Measured values as given in patent US20180066015A1, “INHIBITORS OF GROWTH FACTOR ACTIVATION ENZYMES” (Washington University, published 2018).
Where two headings read alike, the source gives them in different places. *: point of attachment. ketothiazole = C-terminal ketothiazole (kt), c1csc(*)n1; Kbt = ketobenzothiazole, c1ccc2sc(*)nc2c1; kt = C-terminal ketothiazole, c1csc(*)n1

What was measured:
Factor Xa [1] = assay: chromogenic inhibition assay
recombinant thrombin [2] = assay: chromogenic inhibition assay
[3] = target: Hepatocyte Growth Factor Activator (HGFA) serine protease domain, N-terminal His-tag, recombinant (Homo sapiens (Human)) (UniProt Q04756); assay: fluorogenic inhibition assay
[4] = target: Hepatocyte Growth Factor Activator (HGFA) serine protease domain, N-terminal His-tag, recombinant (Homo sapiens (Human)) (UniProt Q04756)
[5] = target: T1, Recombinant human hepsin (4776-SE-010, R&D Systems), activated (human, UniProt P05981); assay: fluorogenic inhibition assay
Protocol: (§1) Inhibitors (11-pt serial dilutions, 0-20 μM final concentration in reaction) were serially diluted in DMSO (2% DMSO final concentration) and then mixed with either recombinant serine protease domain of HGFA [Z. Han, P. K. Harris, D. E. Jones, R. Chugani, T. Kim, M. Agarwal, W. Shen, S. A. Wildman, J. W. Janetka, Acs Med Chem Lett 2014, 5, 1219-1224], matriptase (Charles Craik, UCSF) or hepsin* (#4776-SE-010, R&D Systems, Minneapolis, Minn.) in black 384 well plates (Corning #3575. Corning, N.Y.). […] The final substrate concentrations for all assays were at the Kₘ for the respective enzymes. Changes in fluorescence (excitation at 380 nm and emission at 460 nm) were measured at room temperature over time in a Biotek Synergy 2 plate reader (Winnoski, Vt.). Using GraphPad Prism version 6.04 software program, (GraphPad Software, San Diego, Calif., www.graphpad.com), a four parameter curve fit was used to determine the inhibitor IC₅₀s from a plot of the mean reaction velocity versus the inhibitor concentration. The IC₅₀ values represent the average of three separate experimental determinations.

[6] = target: T2, matriptase (Charles Craik, UCSF), recombinant (Homo sapiens (Human), UniProt Q9Y5Y6); assay: fluorogenic inhibition assay
T2 sequence: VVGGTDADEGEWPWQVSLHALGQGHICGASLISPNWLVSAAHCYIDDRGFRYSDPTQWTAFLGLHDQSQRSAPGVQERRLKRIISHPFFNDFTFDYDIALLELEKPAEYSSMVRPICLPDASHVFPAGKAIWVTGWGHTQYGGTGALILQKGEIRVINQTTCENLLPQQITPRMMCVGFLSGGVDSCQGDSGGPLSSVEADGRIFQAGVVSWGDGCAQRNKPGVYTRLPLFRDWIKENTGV
Protocol: as §1

[7] = target: Recombinant human hepsin (4776-SE-010, R&D Systems), activated (human) (UniProt P05981)
[8] = target: T3, matriptase (Charles Craik, UCSF), recombinant (Homo sapiens (Human)) (UniProt Q9Y5Y6)
T3 sequence: T2 sequence

[9] = target: T1, Recombinant human hepsin (4776-SE-010, …); assay: fluorogenic inhibition assay; remark: listed apart in the source
Protocol: as §1
(§2) Fluorescent inhibitor and chromogenic proteolytic assays were performed in general accordance with the procedures described in Example 4 for compounds prepared in Examples 5 and 6.

[10] = target: T2, matriptase (Charles Craik, UCSF), …; assay: fluorogenic inhibition assay; remark: listed apart in the source
Protocol: as §1, §2

[11] = target: Hepatocyte Growth Factor Activator (HGFA) serine protease domain, N-terminal His-tag, recombinant (Homo sapiens (Human)) (UniProt Q04756); assay: fluorogenic inhibition assay; remark: listed apart in the source
Factor Xa [12] = assay: selectivity inhibition assay
Trypsin = assay: selectivity inhibition assay
recombinant thrombin [13] = assay: selectivity inhibition assay
Boc-QAR-AMC = target: T4, Boc-QAR-AMC
T4 sequence (peptide, N-terminal Boc; C-terminal AMC): QAR

## Ac-KQFR(SEQ ID NO: 4)-kt (peptide)
Factor Xa [1]
  Ki: 78.8 nM
Recombinant thrombin [2]
  Ki: > 20000 nM
[3]
  Ki: 58 nM
[4]
  IC50 of enzyme inhibition: 470 nM

B1: Ac-SKFR(SEQ ID NO: 13)-kt (peptide)
peptide: Ac-SKFR-kt
SMILES: CC(=O)N[C@@H](CO)C(=O)N[C@@H](CCCCN)C(=O)N[C@@H](Cc1ccccc1)C(=O)N[C@@H](CCCNC(=N)N)C(=O)c1nccs1
Factor Xa [1]
  Ki: 530 nM
Recombinant thrombin [2]
  Ki: > 2000 nM
[3]
  Ki: 57 nM
[5]
  Ki: 8.5 nM
[6]
  Ki: 3.03 nM
[7]
  IC50 of enzyme inhibition: 51 nM
[8]
  IC50 of enzyme inhibition: 34 nM
[4]
  IC50 of enzyme inhibition: 520 nM

B2: Leupeptin (Ac-LLR-H) (peptide)
peptide: LLR
modifications: N-terminal acetyl; C-terminus printed as -H
[3]
  Ki: 188 nM
[5]
  Ki: 61 nM
[6]
  Ki: 696 nM
[7]
  IC50 of enzyme inhibition: 256 nM
[8]
  IC50 of enzyme inhibition: 1150 nM
[4]
  IC50 of enzyme inhibition: 535 nM

B3: Ac-KQLR(SEQ ID NO: 1)-Kbt (peptide)
peptide: Ac-KQLR-Kbt
SMILES: CC(=O)N[C@@H](CCCCN)C(=O)N[C@@H](CCC(N)=O)C(=O)N[C@@H](CC(C)C)C(=O)N[C@@H](CCCNC(=N)N)C(=O)c1nc2ccccc2s1
[3]
  Ki: 30 nM
[9]
  Ki: 0.09 nM
[10]
  Ki: 0.55 nM
[11]
  fold change of potency against thiazole 5: 2 fold
Factor Xa [12]
  Ki: 129 nM
Trypsin
  Ki: 0.24 nM
Recombinant thrombin [13]
  Ki: > 20000 nM

B4: Ac-WQLR(SEQ ID NO: 3)-kt (peptide)
peptide: Ac-WQLR-kt
SMILES: CC(=O)N[C@@H](Cc1c[nH]c2ccccc12)C(=O)N[C@@H](CCC(N)=O)C(=O)N[C@@H](CC(C)C)C(=O)N[C@@H](CCCNC(=N)N)C(=O)c1nccs1
[3]
  Ki: 65 nM
[5]
  Ki: 0.21 nM
[6]
  Ki: 32.4 nM
[7]
  IC50 of enzyme inhibition: 1 nM
[8]
  IC50 of enzyme inhibition: 49 nM
[4]
  IC50 of enzyme inhibition: 471 nM

B5: Ac-KFLR(SEQ ID NO: 5)-kt (peptide)
peptide: Ac-KFLR-ketothiazole
SMILES: CC(=O)N[C@@H](CCCCN)C(=O)N[C@@H](Cc1ccccc1)C(=O)N[C@@H](CC(C)C)C(=O)N[C@@H](CCCNC(=N)N)C(=O)c1nccs1
[3]
  Ki: 80 nM
[7]
  IC50 of enzyme inhibition: 22 nM
[8]
  IC50 of enzyme inhibition: 35 nM
[4]
  IC50 of enzyme inhibition: 330 nM

B6: Ac-RQLR(SEQ ID NO: 6)-kt (peptide)
peptide: Ac-RQLR-kt
SMILES: CC(=O)N[C@@H](CCCNC(=N)N)C(=O)N[C@@H](CCC(N)=O)C(=O)N[C@@H](CC(C)C)C(=O)N[C@@H](CCCNC(=N)N)C(=O)c1nccs1
Factor Xa [1]
  Ki: 8.1 nM
Recombinant thrombin [2]
  Ki: > 20000 nM
[3]
  Ki: 60 nM
[5]
  Ki: 0.28 nM
[6]
  Ki: 0.32 nM
[7]
  IC50 of enzyme inhibition: 1 nM
[8]
  IC50 of enzyme inhibition: 1 nM
[4]
  IC50 of enzyme inhibition: 270 nM

B7: Ac-WRLR(SEQ ID NO: 9)-kt (peptide)
peptide: Ac-WRLR-kt
SMILES: CC(=O)N[C@@H](Cc1c[nH]c2ccccc12)C(=O)N[C@@H](CCCNC(=N)N)C(=O)N[C@@H](CC(C)C)C(=O)N[C@@H](CCCNC(=N)N)C(=O)c1nccs1
[3]
  Ki: 21 nM
[5]
  Ki: 0.21 nM
[6]
  Ki: 5.5 nM
[7]
  IC50 of enzyme inhibition: 0.3 nM
[8]
  IC50 of enzyme inhibition: 31 nM
[4]
  IC50 of enzyme inhibition: 275 nM

B8: Ac-SKLR(SEQ ID NO: 10)-kt (peptide)
peptide: Ac-SKLR-kt
SMILES: CC(=O)N[C@@H](CO)C(=O)N[C@@H](CCCCN)C(=O)N[C@@H](CC(C)C)C(=O)N[C@@H](CCCNC(=N)N)C(=O)c1nccs1
Factor Xa [1]
  Ki: 3060 nM
Recombinant thrombin [2]
  Ki: > 20000 nM
[3]
  Ki: 81 nM
[5]
  Ki: 1.2 nM
[6]
  Ki: 58 nM
[8]
  IC50 of enzyme inhibition: 48 nM
[4]
  IC50 of enzyme inhibition: 560 nM

B9: Ac-SHLR(SEQ ID NO: 11)-kt (peptide)
peptide: Ac-SHLR-kt
SMILES: CC(=O)N[C@@H](CO)C(=O)N[C@@H](Cc1c[nH]cn1)C(=O)N[C@@H](CC(C)C)C(=O)N[C@@H](CCCNC(=N)N)C(=O)c1nccs1
[3]
  Ki: 332 nM
[5]
  Ki: 0.6 nM
[6]
  Ki: 104 nM
[7]
  IC50 of enzyme inhibition: 5 nM
[8]
  IC50 of enzyme inhibition: 560 nM
[4]
  IC50 of enzyme inhibition: 1800 nM

B10: Ac-WKLR(SEQ ID NO: 12)-kt (peptide)
peptide: Ac-WKLR-kt
SMILES: CC(=O)N[C@@H](Cc1c[nH]c2ccccc12)C(=O)N[C@@H](CCCCN)C(=O)N[C@@H](CC(C)C)C(=O)N[C@@H](CCCNC(=N)N)C(=O)c1nccs1
[3]
  Ki: 56 nM
[5]
  Ki: 0.55 nM
[6]
  Ki: 8.6 nM
[7]
  IC50 of enzyme inhibition: 4 nM
[8]
  IC50 of enzyme inhibition: 97 nM
[4]
  IC50 of enzyme inhibition: 320 nM

B11: Ac-SRLR(SEQ ID NO: 15)-kt (peptide)
peptide: Ac-SRLR-kt
SMILES: CC(=O)N[C@@H](CO)C(=O)N[C@@H](CCCNC(=N)N)C(=O)N[C@@H](CC(C)C)C(=O)N[C@@H](CCCNC(=N)N)C(=O)c1nccs1
[3]
  Ki: 24 nM
[5]
  Ki: 0.68 nM
[6]
  Ki: 5.8 nM
[7]
  IC50 of enzyme inhibition: 5 nM
[8]
  IC50 of enzyme inhibition: 24 nM
[4]
  IC50 of enzyme inhibition: 303 nM

B12: Ac-RKLR(SEQ ID NO: 18)-kt (peptide)
peptide: Ac-RKLR-kt
SMILES: CC(=O)N[C@@H](CCCNC(=N)N)C(=O)N[C@@H](CCCCN)C(=O)N[C@@H](CC(C)C)C(=O)N[C@@H](CCCNC(=N)N)C(=O)c1nccs1
[3]
  Ki: 17 nM
[5]
  Ki: 0.47 nM
[6]
  Ki: 0.83 nM
[4]
  IC50 of enzyme inhibition: 370 nM

B13: matriptase (Charles Craik, UCSF), recombinant (enzyme)
chain: T2 sequence
Boc-QAR-AMC
  Km of fluorogenic substrate: 93 µM
